# Data reported in IntAct's records for PubMed 20125124.
# B1: Serine protease HTRA2, mitochondrial (Homo sapiens), O43464 (parent)
# chain: MAAPRAGRGAGWSLRAWRALGGIRWGRRPRLTPDLRALLTSGTSDPRARVTYGTPSLWARLSVGVTEPRACLTSGTPGPRAQLTAVTPDTRTREASENSGTRSRAWLAVALGAGGAVLLLLWGGGRGPPAVLAAVPSPPPASPRSQYNFIADVVEKTAPAVVYIEILDRHPFLGREVPISNGSGFVVAADGLIVTNAHVVADRRRVRVRLLSGDTYEAVVTAVDPVADIATLRIQTKEPLPTLPLGRSADVRQGEFVVAMGSPFALQNTITSGIVSSAQRPARDLGLPQTNVEYIQTDAAIDFGNSGGPLVNLDGEVIGVNTMKVTAGISFAIPSDRLREFLHRGEKKNSSSGISGSQRRYIGVMMLTLSPSILAELQLREPSFPDVQHGVLIHKVILGSPAHRAGLRPGDVILAIGEQMVQNAEDVYEAVRTQSQLAVQIRRGRETLTLYVTPEVTE
# partner: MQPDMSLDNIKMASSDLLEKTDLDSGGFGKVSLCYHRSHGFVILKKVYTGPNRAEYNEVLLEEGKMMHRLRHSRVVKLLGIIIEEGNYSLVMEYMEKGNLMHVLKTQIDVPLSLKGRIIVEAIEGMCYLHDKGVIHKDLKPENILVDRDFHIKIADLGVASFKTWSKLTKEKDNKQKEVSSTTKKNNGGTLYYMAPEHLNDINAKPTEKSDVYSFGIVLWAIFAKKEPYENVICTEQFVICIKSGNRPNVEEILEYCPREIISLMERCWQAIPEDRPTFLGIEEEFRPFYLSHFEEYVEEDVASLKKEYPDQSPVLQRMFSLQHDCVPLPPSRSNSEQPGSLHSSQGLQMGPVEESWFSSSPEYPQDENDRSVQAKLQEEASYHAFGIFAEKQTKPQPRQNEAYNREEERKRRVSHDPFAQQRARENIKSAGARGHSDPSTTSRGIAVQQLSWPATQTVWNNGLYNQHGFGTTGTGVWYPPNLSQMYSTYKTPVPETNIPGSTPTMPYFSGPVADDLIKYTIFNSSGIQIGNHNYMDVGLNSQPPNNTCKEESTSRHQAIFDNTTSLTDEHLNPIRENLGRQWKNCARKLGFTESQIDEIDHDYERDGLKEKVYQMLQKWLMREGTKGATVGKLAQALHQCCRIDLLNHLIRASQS
# Variants of: B1
# Conditions: with ripk1_mouse Ripk1, Q60855
row,effect of a mutation on the interaction,Variant
1,disrupting interaction,S306A
